# Reference: paper PMC11054746, “GRPR-Antagonists Carrying DOTAGA-Chelator via Positively Charged Linkers: Perspectives for Prostate Cancer Theranostics” (Pharmaceutics, 2024)
# Starred links: 1 amine or outer side, 2 acyl side, 3 side chain; linkers in the order of their positions; H or OH if unused. Non-standard residues stand in square brackets, D forms with d. Residues, ends and D or L forms follow the SMILES beside them. *: point of attachment. DOTAGA = O=C(O)CN1CCN(CC(=O)O)CCN(C(CCC(=O)*)C(=O)O)CCN(CC(=O)O)CC1; Sta = CC(C)C[C@H](N)[C@@H](O)CC(=O)O; X1 = O=C(CN1CCC(N[*:1])CC1)[*:2]; Sar = CNCC(=O)O
# Key:
# PC-3 cells [1] = assay: Cellular internalization; assay type: cell-based, human; details: 1 nM, acid wash, mean of 3 dishes ± sd, normalized to maximum cell association at 24 h
# Experimental: For the cellular internalization assay, PC-3 cells (1 × 10^6 cells/dish) were used. The cells were incubated with 1 mL (1 nM) of solution containing the radiolabeled peptide under evaluation. At the 4 h and 24 h time points, the cells were treated with an acid wash (0.2 M glycine buffer with 0.15 M NaCl and 4 M urea, pH 2) for 5 min on ice to remove the membrane-bound peptide. After collection of acid fractions, the cells were treated with 1 M NaOH for at least 30 min and the cell debris were scraped and collected. The activity content in samples was measured using the gamma counter.
# [2] = Radiochemical stability: indium release in PBS or with EDTA excess, by iTLC; assay type: physicochemical; details: room temperature, 0.2 M citric acid, mean ± sd, n = 3
# Experimental: The radiochemical yield was analyzed with instant thin layer chromatography (iTLC) strips (Agilent Technologies, Santa Clara, CA, USA), using 0.2 M citric acid buffer as a mobile phase (Rf = 0 for the radiolabeled peptide and Rf = 1 for free indium). The iTLC results were analyzed using Cyclone® Plus Phosphorimager (PerkinElmer, Hägersten, Sweden). The radiochemical stability was determined by incubating the radiolabeled compounds with phosphate-buffered saline (PBS) or a 1000-fold molar excess of ethylenediaminetetraacetic acid (EDTA) for 1 h at room temperature. The percentage of indium release was assessed by iTLC using 0.2 M citric acid as mobile phase. Stability tests were performed in triplicate for each compound.
# human GRPR = target: T1, human GRPR (Homo sapiens, UniProt P30550); assay: Affinity measurements in real time (LigandTracer) on PC-3 cells; assay type: binding; details: room temperature, 1:2 fitting interaction model
# T1 construct: host or cells: PC-3 human prostate adenocarcinoma cells
# T1 sequence (P30550 whole entry): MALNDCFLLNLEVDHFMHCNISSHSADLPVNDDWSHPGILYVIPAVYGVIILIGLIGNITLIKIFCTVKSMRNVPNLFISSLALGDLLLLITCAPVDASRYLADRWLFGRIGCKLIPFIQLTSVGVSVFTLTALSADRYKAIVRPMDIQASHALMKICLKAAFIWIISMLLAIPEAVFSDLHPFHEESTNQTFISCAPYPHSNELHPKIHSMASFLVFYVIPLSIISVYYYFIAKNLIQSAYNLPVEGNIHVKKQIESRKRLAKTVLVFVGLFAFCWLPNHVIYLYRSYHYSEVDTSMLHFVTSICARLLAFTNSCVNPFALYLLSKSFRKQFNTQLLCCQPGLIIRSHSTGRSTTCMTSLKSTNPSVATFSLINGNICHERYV
# Experimental: The association curves were recorded at 1 nM and 3 nM of the radiolabeled peptides for 300 min. After reaching the plateau, the medium containing the radioligand was replaced with fresh medium and the dissociation curve was measured for about 16 h. The obtained sensorgrams were analyzed using TracerDrawer (Ridgeview Instruments AB, Uppsala, Sweden) and the dissociation constants (KD) were calculated.
# in vivo = assay: in vivo; parameters: species or system BALB/C nu/nu mice; details: BALB/C nu/nu, mouse, iv, total radioactivity; for tissue to tissue ratio at 4 h / tissue to tissue ratio at 24 h: Tumor-to-organ ratio
# Experimental: (§1) All in vivo studies were performed following European guidelines on laboratory animal protection. The in vivo stability experiments were carried out in healthy male Swiss albino mice; the study protocol was approved by the Department of Agriculture and Veterinary Service of the Prefecture of Athens (protocol number #440448, 01-06-2021). The biodistribution, in vivo targeting specificity assay, and SPECT/CT imaging experiments were carried out on BALB/C nu/nu mice. The Ethics Committee for Animal Research in Uppsala (Sweden) approved the latter in vivo animal studies (permit number 00473/21). The BALB/C nu/nu mice were implanted with GRPR-positive prostate cancer xenografts by subcutaneous injection on the right hind leg of PC-3 cells suspended in PBS (7 × 10^6 cells/mouse) four weeks before the biodistribution studies.
# (§2) The mice were iv injected with 40 pmol peptide (30 kBq in a total volume of 100 μL 1% bovine serum albumin (BSA) in PBS). […] At the indicated time points, mice were euthanized under anesthesia. The organs of interest were collected, weighed, and the sample radioactivity content was measured on the gamma counter. The percentage of injected activity per gram (%IA/g) of collected tumors, organs and tissues, the %IA for the remaining gastrointestinal tract and carcass, as well as the tumor-to-organ ratios (T/O) were calculated.
# PC-3 xenografts = assay: in vivo; parameters: species or system BALB/C nu/nu mice; details: mouse
# Experimental: as §1, §2
# PC-3 cells [3] = assay: In vitro binding specificity assay (uptake with and without GRPR blocking by NOTA-PEG2-RM26); assay type: cell-based, human; details: 1 nM radiotracer, 1 h, unblocked
# Experimental: The in vitro binding assay was performed on PC-3 cells seeded in 6-well plates (1.15 × 10^6 cells/well). Media containing a GRPR-blocking agent (NOTA-PEG2-RM26, 1 μM) were added to half of the wells. The plates were incubated at room temperature for 10 min and the medium containing the radiotracer under investigation was added to all wells in a final concentration of 1 nM. The plates were incubated for 1 h and then treated with 0.25% trypsin-EDTA to detach cells. The cells were collected and their activity was measured using the gamma counter.
# [4] = 40 pmol, GI (gastrointestinal tract, GIT) uptake
smiles,measurement,setting,value
"CC(C)C[C@H](NC(=O)C[C@H](O)[C@H](CC(C)C)NC(=O)[C@H](Cc1c[nH]cn1)NC(=O)CN(C)C(=O)[C@@H](NC(=O)[C@H](C)NC(=O)[C@H](Cc1c[nH]c2ccccc12)NC(=O)[C@H](CCC(N)=O)NC(=O)[C@@H](Cc1ccccc1)NC(=O)CN1CCC(NC(=O)[C@H](CCCNC(=N)N)NC(=O)[C@H](CCCNC(=N)N)NC(=O)CCC(C(=O)O)N2CCN(CC(=O)O)CCN(CC(=O)O)CCN(CC(=O)O)CC2)CC1)C(C)C)C(N)=O (stereo partly drawn) [[^111In]In-AU-RM26-M4, metal not drawn] ({DOTAGA}-RR[X1][dF]QWAV[Sar]H[Sta]L-NH2)",internalized fraction at 24 h,PC-3 cells [1],33 ± 7%
same,"released [111In]In3+, ×1000 EDTA (1 h)",[2]; 1000-fold molar excess of EDTA,3.2 ± 0.1% (3)
same,"released [111In]In3+, PBS","[2]; incubation in PBS, 1 h",1.9 ± 0.1% (3)
same,ka1,human GRPR; association at 1 and 3 nM,344000 M⁻¹ s⁻¹
same,ka2,human GRPR; association at 1 and 3 nM,346000 M⁻¹ s⁻¹
same,kd1,human GRPR; dissociation about 16 h,2e-06 s⁻¹
same,kd2,human GRPR; dissociation about 16 h,2.08e-06 s⁻¹
same,tissue uptake at 4 h,"in vivo; 40 pmol, Blood uptake",0.122 ± 0.0013 %ID/g
same,tissue uptake at 24 h,"in vivo; 40 pmol, Blood uptake",0.02 ± 0.01 %ID/g
same,tissue uptake at 4 h,"in vivo; 40 pmol, Bone uptake",0.13 ± 0.04 %ID/g
same,tissue uptake at 24 h,"in vivo; 40 pmol, Bone uptake",0.09 ± 0.02 %ID/g
same,tissue uptake dose at 4 h,"in vivo; 40 pmol, Carcass (whole body) uptake",3 ± 1.5 %ID
same,tissue uptake dose at 24 h,"in vivo; 40 pmol, Carcass uptake",0.8 ± 0.2 %ID
same,tissue uptake dose at 4 h,in vivo; [4],1.4 ± 0.3 %ID
same,tissue uptake dose at 24 h,in vivo; [4],0.15 ± 0.03 %ID
same,tissue uptake at 4 h,"in vivo; 40 pmol, Kidneys uptake",7 ± 1 %ID/g
same,tissue uptake at 24 h,"in vivo; 40 pmol, Kidneys uptake",2.7 ± 0.1 %ID/g
same,tissue uptake at 4 h,"in vivo; 40 pmol, Liver uptake",0.6 ± 0.11 %ID/g
same,tissue uptake at 24 h,"in vivo; 40 pmol, Liver uptake",0.31 ± 0.07 %ID/g
same,tissue uptake at 4 h,"in vivo; 40 pmol, Lungs uptake",0.2 ± 0.08 %ID/g
same,tissue uptake at 24 h,"in vivo; 40 pmol, Lungs uptake",0.06 ± 0.02 %ID/g
same,tissue uptake at 4 h,"in vivo; 40 pmol, Muscle uptake",0.06 ± 0.02 %ID/g
same,tissue uptake at 24 h,"in vivo; 40 pmol, Muscle uptake",0.02 ± 0.01 %ID/g
same,tissue uptake at 4 h,"in vivo; 40 pmol, Pancreas uptake",3.4 ± 0.6 %ID/g
same,tissue uptake at 24 h,"in vivo; 40 pmol, Pancreas uptake",0.36 ± 0.08 %ID/g
same,tissue uptake at 4 h,"in vivo; 40 pmol, Small Int uptake",1.1 ± 0.3 %ID/g
same,tissue uptake at 24 h,"in vivo; 40 pmol, Small Int uptake",0.11 ± 0.03 %ID/g
same,tissue uptake at 4 h,"in vivo; 40 pmol, Spleen uptake",0.23 ± 0.07 %ID/g
same,tissue uptake at 24 h,"in vivo; 40 pmol, Spleen uptake",0.14 ± 0.04 %ID/g
same,tissue uptake at 4 h,"in vivo; 40 pmol, Tumor uptake",15 ± 5 %ID/g
same,tissue uptake at 24 h,"in vivo; 40 pmol, Tumor uptake",7 ± 3 %ID/g
same,tissue to tissue ratio at 4 h,"in vivo; 40 pmol, Blood",123 ± 43
same,tissue to tissue ratio at 24 h,"in vivo; 40 pmol, Blood",369 ± 228
same,tissue to tissue ratio at 4 h,"in vivo; 40 pmol, Bone",119 ± 40
same,tissue to tissue ratio at 24 h,"in vivo; 40 pmol, Bone",79 ± 25
same,tissue to tissue ratio at 4 h,"in vivo; 40 pmol, Kidneys",2.3 ± 0.9
same,tissue to tissue ratio at 24 h,"in vivo; 40 pmol, Kidneys",2.6 ± 0.9
same,tissue to tissue ratio at 4 h,"in vivo; 40 pmol, Liver",25 ± 11
same,tissue to tissue ratio at 24 h,"in vivo; 40 pmol, Liver",23 ± 9
same,tissue to tissue ratio at 4 h,"in vivo; 40 pmol, Lungs",90 ± 59
same,tissue to tissue ratio at 24 h,"in vivo; 40 pmol, Lungs",120 ± 61
same,tissue to tissue ratio at 4 h,"in vivo; 40 pmol, Muscle",307 ± 168
same,tissue to tissue ratio at 24 h,"in vivo; 40 pmol, Muscle",347 ± 176
same,tissue to tissue ratio at 4 h,"in vivo; 40 pmol, Pancreas",4 ± 1
same,tissue to tissue ratio at 24 h,"in vivo; 40 pmol, Pancreas",20 ± 5
same,tissue to tissue ratio at 4 h,"in vivo; 40 pmol, Small Int",15 ± 7
same,tissue to tissue ratio at 24 h,"in vivo; 40 pmol, Small Int",67 ± 35
same,tissue to tissue ratio at 4 h,"in vivo; 40 pmol, Spleen",71 ± 37
same,tissue to tissue ratio at 24 h,"in vivo; 40 pmol, Spleen",54 ± 30
same,tissue uptake dose at 4 h,"in vivo; Carcass uptake, Block",1.6 ± 0.3 %ID
same,tissue uptake dose at 4 h,"in vivo; GI (gastrointestinal tract, GIT) uptake, Block",0.5 ± 0.2 %ID
same,Blood uptake,"PC-3 xenografts; BALB/C nu/nu, iv, 40 pmol, 4 h",0.125 ± 0.0004 %IA/g
same,kidney uptake at 24 h pi retained as % of the 4 h renal value,PC-3 xenografts,< 38%
same,pancreas uptake at 24 h pi as % of the initial 4 h uptake,PC-3 xenografts,less than 10%
same,"cell uptake, fold higher than the other analogs of the series",PC-3 cells [3],2 fold
